Values joined by “and” are separate entries in the source; they are usually repeats but may differ in a detail not shown here. Equal entries are not always repeated.
T1: substrate S-1 (SEISY-EVEFRWKK)
T1 chain: SEISYEVEFRWKK

B1: BACE construct Asp2-2L-TM-His6 expressed in CHO cells (protein)
chain: TQHGIRLPLRSGLGGAPLGLRLPRETDEEPEEPGRRGSFVEMVDNLRGKSGQGYYVEMTVGSPPQTLNILVDTGSSNFAVGAAPHPFLHRYYQRQLSSTYRDLRKGVYVPYTQGKWEGELGTDLVSIPHGPNVTVRANIAAITESDKFFINGSNWEGILGLAYAEIARPDDSLEPFFDSLVKQTHVPNLFSLQLCGAGFPLNQSEVLASVGGSMIIGGIDHSLYTGSLWYTPIRREWYYEVIIVRVEINGQDLKMDCKEYNYDKSIVDSGTTNLRLPKKVFEAAVKSIKAASSTEKFPDGFWLGEQLVCWQAGTTPWNIFPVISLYLMGEVTNQSFRITILPQQYLRPVEDVATSQDDCYKFAISQSSTGTVMGAVIMEGFYVVFDRARKRIGFAVSACHVHDEFRTAAVEGPFVTLDMEDCGYNIPQTDESHHHHHH
B2: P33K-BACE expressed in E. coli from the pET11a-P33K-BACE construct (protein)
chain: MASMTGGQQMGRGSMAGVLPAHGTQHGIRLPLRSGLGGAPLGLRLPRETDEEPEEKGRRGSFVEMVDNLRGKSGQGYYVEMTVGSPPQTLNILVDTGSSNFAVGAAPHPFLHRYYQRQLSSTYRDLRKGVYVPYTQGKWEGELGTDLVSIPHGPNVTVRANIAAITESDKFFINGSNWEGILGLAYAEIARPDDSLEPFFDSLVKQTHVPNLFSLQLCGAGFPLNQSEVLASVGGSMIIGGIDHSLYTGSLWYTPIRREWYYEVIIVRVEINGQDLKMDCKEYNYDKSIVDSGTTNLRLPKKVFEAAVKSIKAASSTEKFPDGFWLGEQLVCWQAGTTPWNIFPVISLYLMGEVTNQSFRITILPQQYLRPVEDVATSQDDCYKFAISQSSTGTVMGAVIMEGFYVVFDRARKRIGFAVSACHVHDEFRTAAVEGPFVTLDMEDCGYNIPQTDES
B3: human BACE expressed in E. coli from pET11a-BACE, without the P33K mutation (protein)
chain: MASMTGGQQMGRGSMAGVLPAHGTQHGIRLPLRSGLGGAPLGLRLPRETDEEPEEPGRRGSFVEMVDNLRGKSGQGYYVEMTVGSPPQTLNILVDTGSSNFAVGAAPHPFLHRYYQRQLSSTYRDLRKGVYVPYTQGKWEGELGTDLVSIPHGPNVTVRANIAAITESDKFFINGSNWEGILGLAYAEIARPDDSLEPFFDSLVKQTHVPNLFSLQLCGAGFPLNQSEVLASVGGSMIIGGIDHSLYTGSLWYTPIRREWYYEVIIVRVEINGQDLKMDCKEYNYDKSIVDSGTTNLRLPKKVFEAAVKSIKAASSTEKFPDGFWLGEQLVCWQAGTTPWNIFPVISLYLMGEVTNQSFRITILPQQYLRPVEDVATSQDDCYKFAISQSSTGTVMGAVIMEGFYVVFDRARKRIGFAVSACHVHDEFRTAAVEGPFVTLDMEDCGYNIPQTDES

Target: T1, substrate S-1 (SEISY-EVEFRWKK)

Protein | Activity Assays (Fluorescence Peak Area) (fluorescence peak area) | enzyme activity compared with BACE
B1 | 83.3 and 85.2 and 78.1 | 
B2 | 38.4 and 26.5 and 32.8 | the P33K-BACE has essentially the same activity of BACE
B3 | 31 and 45.8 and 31.9 | 

From US20040005691
